From US20180327752A1 (Stanford University, published 2018)

Assays:
[1] = molecular target: c-MET (Homo sapiens) (UniProt P08581); assay: Flow cytometry surface staining of HAP1 WT cells with the isotype control, SSC against PE
[2] = molecular target: FGFR1; assay: Flow cytometry surface staining of HAP1 WT cells with the isotype control, SSC against FITC
[3] = molecular target: T1, AAV2 particles (adeno-associated virus serotype 2 capsid) (adeno-associated virus serotype 2, UniProt P03135 1-735); assay: cell-based or functional assay
T1 sequence (P03135 whole entry): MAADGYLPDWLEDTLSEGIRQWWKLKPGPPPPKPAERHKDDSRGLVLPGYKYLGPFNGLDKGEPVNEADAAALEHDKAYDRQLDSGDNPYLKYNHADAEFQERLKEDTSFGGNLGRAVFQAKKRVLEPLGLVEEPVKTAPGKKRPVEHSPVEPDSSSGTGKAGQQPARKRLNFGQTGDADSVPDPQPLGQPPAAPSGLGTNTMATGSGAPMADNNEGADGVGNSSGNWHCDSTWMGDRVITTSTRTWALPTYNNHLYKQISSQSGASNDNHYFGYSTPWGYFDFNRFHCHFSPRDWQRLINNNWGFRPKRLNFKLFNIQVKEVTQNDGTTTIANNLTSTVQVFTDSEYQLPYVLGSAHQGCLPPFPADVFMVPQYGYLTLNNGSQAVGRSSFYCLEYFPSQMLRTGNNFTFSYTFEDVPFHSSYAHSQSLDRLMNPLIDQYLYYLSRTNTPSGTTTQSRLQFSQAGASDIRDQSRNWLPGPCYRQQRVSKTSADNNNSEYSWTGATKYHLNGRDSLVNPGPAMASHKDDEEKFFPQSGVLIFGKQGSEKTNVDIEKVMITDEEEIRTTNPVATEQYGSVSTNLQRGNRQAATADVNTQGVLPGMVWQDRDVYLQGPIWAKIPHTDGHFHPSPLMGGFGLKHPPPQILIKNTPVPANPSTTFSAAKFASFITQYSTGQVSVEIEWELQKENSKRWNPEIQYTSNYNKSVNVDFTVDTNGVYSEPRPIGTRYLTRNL

[4] = molecular target: T1, AAV2 particles (adeno-associated virus …); assay: ELISA: plates coated with AAV2 virus-like particles, soluble AAVR (MBP-PKD1-5) detected with anti-MBP-HRP, A450
[5] = molecular target: T1, AAV2 particles (adeno-associated virus …); assay: SPR (BIAcore X): His-tagged soluble AAVR immobilised at 4 nM ligand concentration, AAV-2 particles as analyte, Langmuir 1:1 fit
[6] = molecular target: T1, AAV2 particles (adeno-associated virus …); assay: SPR (BIAcore X), His-tagged soluble AAVR immobilised on CM5 chip, AAV-2 particles as analyte, Langmuir 1:1 fit
[7] = molecular target: T1, AAV2 particles (adeno-associated virus …); assay: SPR (BIAcore X): His-tagged soluble AAVR immobilised at 2 nM ligand concentration, AAV-2 particles as analyte, Langmuir 1:1 fit

isotype (PE row) (antibody)
% of cells in the positive gate [1]: 0.68%

isotype (FITC row) (antibody)
% of cells in the positive gate [2]: 0.28%

B1: soluble AAVR (E. coli-expressed recombinant fusion between maltose-binding protein and AAVR PKD domains 1-5) (receptor)
chain: VSAGESVQITLPKNEVQLNAYVLQEPPKGETYTYDWQLITHPRDYSGEMEGKHSQILKLSKLTPGLYEFKVIVEGQNAHGEGYVNVTVKPEPRKNRPPIAIVSPQFQEISLPTTSTVIDGSQSTDDDKIVQYHWEELKGPLREEKISEDTAILKLSKLVPGNYTFSLTVVDSDGATNSTTANLTVNKAVDYPPVANAGPNQVITLPQNSITLFGNQSTDDHGITSYEWSLSPSSKGKVVEMQGVRTPTLQLSAMQEGDYTYQLTVTDTIGQQATAQVTVIVQPENNKPPQADAGPDKELTLPVDSTTLDGSKSSDDQKIISYLWEKTQGPDGVQLENANSSVATVTGLQVGTYVFTLTVKDERNLQSQSSVNVIVKEEINKPPIAKITGNVVITLPTSTAELDGSKSSDDKGIVSYLWTRDEGSPAAGEVLNHSDHHPILFLSNLVEGTYTFHLKVTDAKGESDTDRTTVEVKPDPR
notes: Used in the ELISA on AAV2 VLPs and in the neutralization assay; also called rAAVR1-5; MBP-AAVR PKD 1-5
IC50 (read off the curve) [3]: ~0.02 µM
EC50 (read off the curve) [4]: ~100 nM

B2: His-tagged soluble AAVR (His-tagged MBP fusion with AAVR PKD domains 1-5) (receptor)
chain: B1 chain
notes: Construct immobilised on the CM5 chip for SPR; also called AAVR (SPR ligand); not shown: His tag
Kd [5]: 150 nM
koff [5]: 0.0029 s⁻¹
kon [5]: 18000 M⁻¹ s⁻¹
Kd [6]: ~150 nM
Kd [7]: 140 nM
koff [7]: 0.0023 s⁻¹
kon [7]: 20000 M⁻¹ s⁻¹
